Experiment [1] deals with HAdV-D37 protein IIIa tagged with C-terminal 3X FLAG (human adenovirus D type 37 (HAdV-D37)). Briefly: SPR; […] (80 nM or 2.5 nM) […]. In general terms: Surface plasmon resonance follows binding to a sensor surface in real time, without labels.
Experiment [2] shares this target. Briefly: SPR; BIAcore T200, 25°C, […] (25 mM HEPES, 150 mM NaCl, 0.05% P20, 2 mM DTT, pH 7.4); […]; 1:1 binding model.

As usually defined, the Kd is the concentration at which binding is half-saturated. Broadly, the koff is a measure of how fast the partners let go of each other. As a reminder, the kon is a measure of how fast the partners come together. A lower kon goes with slower complex formation.

partial recombinant RANBP2 protein (#ab268915, Abcam) (domain or fragment), sequence (P49792 1346-1815): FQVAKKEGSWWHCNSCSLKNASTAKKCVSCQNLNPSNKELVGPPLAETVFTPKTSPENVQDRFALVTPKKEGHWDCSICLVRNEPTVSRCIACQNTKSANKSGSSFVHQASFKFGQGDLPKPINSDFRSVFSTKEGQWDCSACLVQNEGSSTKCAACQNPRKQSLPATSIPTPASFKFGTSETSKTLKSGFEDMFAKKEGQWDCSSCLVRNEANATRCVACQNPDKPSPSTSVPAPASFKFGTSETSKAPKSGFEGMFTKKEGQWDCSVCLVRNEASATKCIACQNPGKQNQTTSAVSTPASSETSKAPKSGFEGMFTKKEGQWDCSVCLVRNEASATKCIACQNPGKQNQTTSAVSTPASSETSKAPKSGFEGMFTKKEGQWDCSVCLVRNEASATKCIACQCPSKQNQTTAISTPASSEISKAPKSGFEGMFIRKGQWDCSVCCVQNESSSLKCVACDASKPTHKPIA

On to “recombinant USP9X protein (#ab271784, Abcam) (from UniProt Q93008 1-2554) (enzyme)”, for which the dissociation constant (Kd) in experiment [1] worked out at 1.8 nM. In experiment [2], this substance registered a dissociation constant Kd of 32 nM, a koff of 0.00119 s⁻¹ and a kon of 37200 M⁻¹ s⁻¹.

“partial recombinant RANBP2 protein (#ab268915, Abcam) (domain or fragment)” showed a dissociation constant (Kd) in experiment [1] of 122 nM. In addition, in experiment [2], the equilibrium dissociation constant (Kd) came to 13.7 nM, the off-rate constant (koff) is 0.000658 s⁻¹ and the kon came out at 48000 M⁻¹ s⁻¹.
